Results reported in PMC5538295.

Target: FMRP (rat, UniProt Q80WE1 1-593)
Experiment: EMSA; 150 mM KCl, tRNA; three shifted bands; Filter binding: 10 mM Tris pH 7.5, 50 mM KCl, 1 mM DTT, room temperature; REMSA: 20 mM HEPES pH 7.6, 150 mM KCl, 0.5 mM DTT, 5% glycerol, 50 ng/ul tRNA, room te

B1: human MMP-9 wild-type probe (ssRNA)
RNA: GUUCUGGAGGAAAGGGAGGAGUGGAGGUGGGCUGGGCCCUCUCUUCUCACCUUUGUUUUUUGUUGGAGUGUUUCUAAU
B1: binds.
